Measured values as given in the DeepSol protein solubility set.

experiment: soluble on expression in E. coli; label from the status in PepcDB or PDB records

Sequence | soluble on expression in E. coli
MGSDKIHHHHHHMVPHLITALNGPLLELEKKILDATPSIERWFRLEWQEHTPPFYCSVDLRNAGFKLAPVDTNLFPGGFNNLAPEMLPLAVQAAMAAIEKICPDAKNLLLIPERHTRNMFYLQNVARLSLIMRQAGLNVRLGSLSEEITEPTPIELPDGQTLVVEPLARLGTKDRRLGLKDFDPCSILLNNDLSAGIPPILENINEQYLLPPLHAGWSTRRKSSHFAAYDEVAKKFAKLIDIDQWMVNPYFARCSGVNFHERIGEEELADSVEAVLKKIAKKYREYGIKETPYVVVKADAGTYGMGIMTVRDPSEVKGLNRKERNKMSVVKEGLEVSDVIIQEGVHTFEKVNEAVAEPVVYMIDRYVVGGFYRVHTGRGNDENLNAPGMHFVPLAFAPNGIPDSHAKPGAAVPNRFYMYGVVARLALLAASIELEKTDPNPIL | not soluble
MIRITLHTYCISELFSGDLELFASKLEETSQNQKTYSTPRSSDFRAILPTYSTPRSSDFGAILPIHSTTRLSNLSSGHSMTLLDPLVEYHFATLPDNTRPFTLPSYSTPWSSIITHHHQHHSTGHSITSSQSTQIRTQPDKLSTRKRRGEDKVFGSGLDLHRIKKPISAHYLSMGRAIRLLARLLSFYFVLYK | soluble
MSAPWETLLDWWFGTSSDAAEVVAQRNGLWFGKNVCQDADAGGRFGDLVNQALDGGLQEWTAEADGWLALILLLDQLPRMIYRDTPRAYAGDARAQRVVREGLEKGFDRQLPPVRRVFAYLVLEHAEDLPSQERAVACFRDLRDQVGGSVRKPFDDFYDYAERHHAVVARFGRFPHRNAILGRPSSEEETAFLREPGSRF | not soluble
MTCLSRDWATAQRLVEWALASTRCECFNVDSNFMAGLCLVENPTKQHYSFEVRKQVVDRFNAGQSKMDLAREFGLSSDQLVSSWVRAWRAGGDEALRPKPKGRPKGSASSKPLTEEDRLRREVEKLRAENAYLKKLRDLRNQRRSLEHHHHHH | soluble
GPGSMSLASPSSLPPIALATQRLRTFAAQEEQAHGLTTSTALEEWATQSFEAETERINRELVQRRSQASVTFLPALYMRGRDPAADETTRLLHSTCKAFELDLRFKEIEKLDEMHAHLWTLLSAGDRTSISMEAYEQLLHDFNEWAAEHYGAQLLPPPSTVWDVSEDEDECILCRREVKEDDHEKSGGGNSSPSMSPLRPPVSLARPLSASTPPVLAATKAAPNDAPFTSGTRGASWDAVLQHVKRYRDQQRSDTSASASSFMRSHAHFEHLLRLAEDQPALGNVLYLCSVPPPRPDVQLFLSCPRNAERAVEIAAIYQTFAKQVSLVKCEAELIMWDSNNDGRLSEDEVENYVRDLAPRIAALQAMSKDMLPFYCCTVSRRLFWDLDPGNRGVLRIHSLLHSGIMDEWVSLQLMTEDDTQNWFGALVTQQLYNKFVLLDTRNTGTLNVENLRGYKKGLPTVLDDGLPPDVSPLCSLFIDRYFETNTLMTRSEMDYRKFVDFVIAVELLPQCSRPYFFWNILDMEGTGVLTPMIVNQFFRETHAKLVAAGLDVPSRETVVQEVFDLIEKAESLLITRDEFVRSPQAGLFVALLIDCLSFWTYENREQR | not soluble
MAHHHHHHMTTPSSPAHPAAHLCDVTGDTAAAAAAGASGMMADTARMLSPRPSVTRTAAKTSGGPVQVALSQSCPHPHQQHQQHHQHHQHQQHHQHHQHQQHHQHHQHQQHHQHQQHQQHQQPCLGGLLDPFFLTEIDENVQAFSGTAATSGSHTSLSGDGGSPSAKDAALCSPCVECVPPARGKTVRKSRSACELRLECLLSTSMGSDITKDEADDSKRKRRQPSSFPSSSRRDTAGCFSSVEVMGPTDEVAAADEAIATTAATAADAEAGVKSRDPKRRSLLPTWVTARTSTVTRAGAPPTDSGETSRTANGCLASPRSFSLSHSKPSSGSRDTSEGSHVLDCEATLLPSESVGVVASTHSSTVSSYASEAQGRAAEEATNCATAGGATVGSKMTLLVSLIMRCTPSRRGPPHSASPTEDGAADAERLPPLELYPPLVSPSSIEEASCGVGYDVPSAHHDDMYAMKDITVAVKEDVNQRRGALAKEPTLPASTASRRTQHTKWSMHPSPVSAWLLGSSAVGASLSTALWRAALRSRPAMHTPCSCVSARAEQHSVQVLSRVLANGSAVSTKVLAMRSWAEFERASVSFPSTWSASVSAHLSAVPPSLTTDSTTLRGPSMLHLTLPPLPDQTSVGPASIAYINRAPSRPAATAEEVVARQPCDVWRLARCYAHFERAVEQRGEDGVWSARGISSLATWDSVKLVVAAGVASRDAESSTDEGCEDGGAWLLPSFTLDVVPDTLDTPSPASPQVTSTFPFSPVVSVLRAEKEEEVFTSAVMWALEMMTGVR | soluble
MPALKKIEQSLDHLFQIEKYGKDSAFSRFIPAVYDPIKFPWQQFFEANFVDLFNGLMMHGSENVNKVFLAVFPTDDVLETFISQSTPGDLLFMHHPLVMECGDPLGRSGRGFLPIPEKYLQGIKEKQLSIYTCHVPMDFHQTHGTSISIAKALNATVVDDFAYGGPEQEPVGLICEIDETSTEALQKHLKQLFQIPYTDFEGKRHDSIKKIAIIAGCGDVVSLMKEAEEKGAEAYITGEIHCHIDNDYGRHKYSLIMDYVKETNMSLIGVSHSASEYLVKETLMYDWFKENFDVDVILLPQEKWWLMAGDPLEHHHHHH | not soluble
GIDPFTGIDPFTGTQACITAASAVSGIIADLDTTIMFATAGTLNREGAETFADHREGILKTAKVLVEDTKVLVQNAAGSQEKLAQAAQSSVATITRLADVVKLGAASLGAEDPETQVVLINAVKDVAKALGDLISATKAAAGKVGDDPAVWQLKNSAKVMVTNVTSLLKTVKAVEDEATKGTRALEATTEHIRQELAVFCSPEPPAKTSTPEDFIRMTKGITMATAKAVAAGNSCRQEDVIATANLSRRAIADMLRACKEAAFHPEVAPDVRLRALHYGRECANGYLELLDHVLLTLQKPNPDLKQQLTGHSKRVAGSVTELIQAAEAMKGT | soluble
MEMNRRRSRGFMIAKLMPFCKAVKSPTPSQDLYNNVHYTSSTTTSYARQPDFNNYVTATTPLPPKVSFLLQPSLAPEGKDMEKKLNMMAEKLIGRGINGVDDCVDARAASYISSVRERFKADQYCEKLTTVISLDDEN | soluble
MCGRFVLFTTDESLLGHPALRIFHSIHAPKGMPPARYNIAPTTIIPILRVGTTPTEAVIEPARWGLIPAWKREVTLPPLFNARAETVTTKPSFRQAFSTQRCAIPMDGYYEWHNKKPYWITTGAPTWVAGLWDSGAGMLSATMITTDSVAPLDWLHHRMPRFLNNDELAVWLRGSADEASGLLTPGDASAFHTSLADPSVGNIRNDYPELIDAPTDLFSLLEHHHHHH | soluble
GSHMDLETLRARREAVLSLCARHGAVRVRVFGSVARGEAREDSDLDLLVAFEEGRTLLDHARLKLALEGLLGVRVDIVSERGLAPRLREQVLREAIPL | soluble
MESCLDIFKIVIGPSSSRTVGPMRAACHFISLLREQETLPLIREIEIELYGALSLSRKCHNVDTALYLGLLGCQPENVDLRSYMAVIKRAENENKIELPLSDAGGITIKVKIIANHQAHPGHPYAMTFRARDDYFTVYEETWFSTGAGQVRKHGEPLTPSLPLRTVSPFEFSHAAQLLALCRRNGLSVAALMMKNELCRHSPQTLQNYLAQIWDVMQQAVYRGLHTEGVLPGPYQVPRRACALHKTLQANRSASDFLTALNWVNAFAIAVSEENASGGQIVTAPTNGACGIIPAALCWYDKFVTPLEPGALTRFFLTAAAIAMLFKQNASILGSEVGCQGEIGVACSMAAAGLAELMGASVEQTLSAAEIAMEHHLGLTCDPLGGQVQIPCIERNAISAVKAINAATMAMSRVSEPCISLDEIIAAMYETGKDMSAKYRETYHGSLGKIQPRKRG | not soluble
MAEAATPGTTATTSGAGAAAATAAAASPTPIPTVTAPSLGAGGGGGGSDGSGGGWTKQVTCRYFMHGVCKEGDNCRYSHDLSDSPYSVVCKYFQRGYCIYGDRCRYEHSKPLKQEEATATELTTKSSLAASSSLSSIVGPLVEMNTGEAESRNSNFATVGAGSEDWVNAIEFVPGQPYCGRTAPSCTEAPLQGSVTKEESEKEQTAVETKKQLCPYAAVGECRYGENCVYLHGDSCDMCGLQLLHPMDAAQRSQHIKSCIEAHEKDMELSFAVQRSKDMVCGICMEVVYEKANPSERRFGILSNCNHTYCLKCIRKWRSAKQFESKIIKSCPECRITSNFVIPSEYWVEEKEEKQKLILKYKEAMSNKACRYFDEGRGSCPFGGNCFYKHAYPDGRREEPQRQKVGTSSRYRAQRRNHFWELIEERENSNPFDNDEEEVVTFELGEMLLMLLAAGGDDELTDSEDEWDLFHDELEDFYDLDL | soluble
MAHHHHHHMPENDEHVVVQACSVRVALPASTQPCGVEDAVQHCLHAARAIVQINLVRGTPRVALQLLACRTDACGEQHTASQVLDESPRRLQYALLLRGFEQRGGPVNRLDHTSLACAMCVPNYFSPHHFGAAAVPFFRTYHVTEALAKRRYADAAVMMACLEVETVAEASTEVPPWLARALQLLCRGEDREGVWQAWWIHEVPAATQRRMVCAKSDLVWNVVASHRLQELVAATGGCRDVLLAAAPKPGDFVFQLEEAEDSGATSAALAPVALSAPVTAVYSQAQAARYSVHDIALPLVLDASSEFEGCESLAVIEAQLGFTHDRRRHLSLHPSQRPCQSHTSLPAVAQTNETVFRPLLVEATGYPRATRPWCRSFPEPSVGPAFDRPKAALESNATVFALATDWDLASQTAVARDYAAKSRGPRACVWPLSKRGRALTDRLPAGLMTVASADGSSLLGGASTTNYHGSRCLAIHCTLPARVSLANFVSELAAVEDLRDSQA | not soluble
MGSDKIHHHHHHDLEEYRTTPKMVINSAFSPDTVVMASISRTWFHSESKPDVTIRNAKVELYIDGIFKEEMPWKEYSYWKSSRWLGEDRGGWVTDTLYISNTVPQPGQTVKIVASTPEYGTASAEDKIPSKTEIKGLRIIPRKEATGNGGTLVDGDGNISYIEENDVLIYQITFQDTPGKSNYYSLQIWGDDDHLGVLLDFSVDPVFTQQQGILDEVFGSSMVNWRGRVFSDELFDGKEYTLQVKEQLRSDTKYYTKRHIRLYSLSEPYYQYLLSLQNIKNEGIMGGLTNVGLAEPVRIYSNVEGGTGIAGGCQWFESLVDIKDLIK | not soluble
SPSCSPQQASKAEENGSNSFMHSMVPQLEWQMETTQSLVDSYVAIVNKTVWDLMVGLTPKTIMHLMINNNKEFIFSELLANLYLHGDKNMLMEESAEQAQRS | soluble
MKKEANFDEVLFSLGQEVIQVLIRRGASLEDAQDAVSQTYTTIFSILPEITSENLRPWFFRVTFNYYITMYRKKKRERTFVANSHPVQSIEKMEGQELLLLIDSLKDEEQELVLLKYYYQLSYAEIALILELSVENVRKKLYRTRQKLKKELEE | not soluble
MGSDKIHHHHHHMSETVTESYIGSAIVYIDGRDCGNVSGVKLAIDQETKSLPNYRGGGGNADEVTLIKAVKLSGTFYDFNNDNLALAMRGKIDVLTAAAVVDEDITAVLDGLAPTVHMIDTSVAPVVKNTAGDSTYVLDEDYVVSAAGIRALSGGAITAGQALKLSYTSQAGNALQALTESGKTVSVVVDGINDSTGKPWTLKFYKWKPTPTSGLDLIGTDYGSFDIEGAVLADSSIVATGKSKFFVRSAA | not soluble
MSLSKYAVSYVYKTFADIGSYAWAKKQIEVLASKGVINGTSDTTFTPQADITRADFMILLVKALGLTAEVTSNFDDVSEKDYYYEYVGIAKELGITTGVGNNKFNPKAKITRQDMMVLTTNALRIAGKISSTGTRADVERFSDKDQIASYAVEGVATLVKEGIVVGSGDIINPRGNASRAELAAIIYKIYYKEGHHHHHH | soluble
